# Reference: the supplement of paper PMC9170038
# Tested on: MS2 coat protein
# Assay: apparent KD of MS2 coat protein; designed switch direction (-1 OFF switch, 1 ON switch): -1; higher = weaker reporter binding
# In short: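 On Illumina chips, designed RNA switches with common flanks were made by stalled E. coli RNA polymerase. Titrations with SNAP-549-labelled MS2 coat protein, doubling from 0.7 or 1.5 nM to 3 µM, were done with no input, with 200 uM small-molecule ligand, or with an oligonucleotide input. Apparent KD is the median per design over clusters, from curve fits of normalised cluster fluorescence.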
# [1] = Eterna round: R95, input ligand: FMN 200 uM
# [2] = Eterna round: R95, input ligand: microRNA oligo, concentration not stated
# [3] = Eterna round: R95, input ligand: none
sequence,measurement,setting,value
GAGAGGUCAGGAUAUACGGAGAGAGAGAGUAGGUGAGGGUAACAUGAGGAUCACCCAUGUAGAAGGGACUAAGG [JR_Exclu2_Sub075] (puzzle: Exclusion 2),apparent KD of MS2 coat protein,[1],51.7 nM
same,apparent KD of MS2 coat protein,[2],48.4 nM
same,apparent KD of MS2 coat protein,[3],46.3 nM
"GAGCAGCGAGGAUAUACCUGGACCUGGUCCCAGGCCGAUCAACUUGAGGAUCACCCAAGUAGAAGGCGUGGCUC [Ceortiti] (Eterna round: R97, puzzle: Exclusion 2)",apparent KD of MS2 coat protein,input ligand: FMN 200 uM,322 nM
same,apparent KD of MS2 coat protein,input ligand: none,401 nM
"GAGGCAUGCCGAGGUCCACACAUGAGGAUCACCCAUGUAAUGACAGGCUUUUUACUCGUUUUACCGCUAUCGCGUUC [Gedied] (puzzle: Sensor v3, turn-off variant 1)",apparent KD of MS2 coat protein,[1],14.9 nM
same,apparent KD of MS2 coat protein,[2],21.7 nM
same,apparent KD of MS2 coat protein,[3],12.7 nM
GAGGUGUUAGGAUAUCGGAGAUGGAGACCGACGGGAUGAGCCGAGAAGGAACAUGAGGAUCACCCAUGUAGGUG [JR_Exclu4_Sub033] (puzzle: Exclusion 4),apparent KD of MS2 coat protein,[2],386 nM
"GAGUACUCAGGAUAUGCAUGAGUAGUGAUGUAGAGAGUGUGACAUGAGGAUCACCCAUGUAGAAGGGAGGAAUG [Version #1] (Eterna round: R97, puzzle: Exclusion 2)",apparent KD of MS2 coat protein,input ligand: FMN 200 uM,338 nM
same,apparent KD of MS2 coat protein,input ligand: none,105 nM
GAGUGACAUGAGGAUCACCCAUGUGAGGAUAUCGGACGGACCAAAUUAACAACACCCGCGAGAAGGCACAUCGG [Exclusion 1 V21] (puzzle: Exclusion 1),apparent KD of MS2 coat protein,[2],110 nM
GAGUGACAUGAGGAUCACCCAUGUGAGGAUAUCGGACGGACCAAAUUAACAACCGCCGCGAGAAGGCACAUCGG [Exclusion 1 V21] (puzzle: Exclusion 1),apparent KD of MS2 coat protein,[1],130 nM
same,apparent KD of MS2 coat protein,[2],144 nM
same,apparent KD of MS2 coat protein,[3],129 nM
"GAGUUAACAUGAGGAAUAUACAUGAGGAUCACCCAUGUUAACAAAAUUUUUGCUCGUCUUAUAACAACAAUUAACUC [Alarm 3 - Jieux - Sensor, turn-off variant 1] (Eterna round: R97, puzzle: Sensor, turn-off variant 1)",apparent KD of MS2 coat protein,input ligand: FMN 200 uM,272 nM
same,apparent KD of MS2 coat protein,input ligand: none,151 nM
"GAGUUAGCGUGAGGAAUAUACAUGAGGAUCACCCAUGUUAGCAAAUAUAUUGCUCGUCUUAUAACAACAAUUAACUC [Alarm 9 - Jieux - Sensor, turn-off variant 1] (Eterna round: R97, puzzle: Sensor, turn-off variant 1)",apparent KD of MS2 coat protein,input ligand: FMN 200 uM,13.6 nM
same,apparent KD of MS2 coat protein,input ligand: none,14.3 nM
"GAUACACGUUCAGGAUAUCGCGCCCAAUUACACCUCUUCCGACGGACAUGAGGAUCACCCAUGUGCGAGAAGGGAACCAAAACU [Orquonbedi] (Eterna round: R96, puzzle: Exclusion NG 2)",apparent KD of MS2 coat protein,input ligand: FMN 200 uM,13.6 nM
same,apparent KD of MS2 coat protein,"input ligand: microRNA oligo, concentration not stated",13.2 nM
same,apparent KD of MS2 coat protein,input ligand: none,17.4 nM
GAUCAACAUGAGGAUCACCCAUGUGAGGAUAUGAUACUAUGUACUUCGGUACAUAGUAUCAGAAGGCAUGUAAA [Ex1-3: 78] (puzzle: Exclusion 1),apparent KD of MS2 coat protein,[2],54.5 nM
GAUCAACAUGAGGAUCACCCAUGUGAGGAUAUGUAUCAUAGAUCUUCGGAUCUAUGAUACAGAAGGCAUGUGAA [Ex1-3: 101] (puzzle: Exclusion 1),apparent KD of MS2 coat protein,[2],67.8 nM
"GAUCAACAUGAGGAUCACCCAUGUGAGGAUAUUGACUUGCUCACUUUCCCAUCAGAGUCGAGAAGGCGCAUCUG [1986#21] (Eterna round: R97, puzzle: Exclusion 1)",apparent KD of MS2 coat protein,input ligand: FMN 200 uM,28.1 nM
same,apparent KD of MS2 coat protein,input ligand: none,40.8 nM
GAUCAGCUUGUGAGGAUAUCCGGGCUUAAAGGCUAGGAGAAGGUACAUGAGGAUCACCCAUGUAGAGUCCUGGG [Zageesen] (puzzle: Brourd's mod of Exclusion 4),apparent KD of MS2 coat protein,[2],50.4 nM
"GAUCAGGUAGGAUAUGCAGGAUCGGACUUGAGGAUCACCCAAGUGGCCAAAGUGCGUCCCGCAGAAGGGCCAAAAC [Biinxelace] (Eterna round: R97, puzzle: Exclusion 5)",apparent KD of MS2 coat protein,input ligand: FMN 200 uM,439 nM
same,apparent KD of MS2 coat protein,input ligand: none,618 nM
